{
  "source": "paper PMC5856089",
  "key": {"[1]": {"target": "T1, C-luc Apaf-1 (full length Apaf-1 fused through its N-terminus to the C-terminal fragment, amino acids 395-550, of P. pyralis luciferase, with C-terminal His-tag), O14727", "T1 chain": "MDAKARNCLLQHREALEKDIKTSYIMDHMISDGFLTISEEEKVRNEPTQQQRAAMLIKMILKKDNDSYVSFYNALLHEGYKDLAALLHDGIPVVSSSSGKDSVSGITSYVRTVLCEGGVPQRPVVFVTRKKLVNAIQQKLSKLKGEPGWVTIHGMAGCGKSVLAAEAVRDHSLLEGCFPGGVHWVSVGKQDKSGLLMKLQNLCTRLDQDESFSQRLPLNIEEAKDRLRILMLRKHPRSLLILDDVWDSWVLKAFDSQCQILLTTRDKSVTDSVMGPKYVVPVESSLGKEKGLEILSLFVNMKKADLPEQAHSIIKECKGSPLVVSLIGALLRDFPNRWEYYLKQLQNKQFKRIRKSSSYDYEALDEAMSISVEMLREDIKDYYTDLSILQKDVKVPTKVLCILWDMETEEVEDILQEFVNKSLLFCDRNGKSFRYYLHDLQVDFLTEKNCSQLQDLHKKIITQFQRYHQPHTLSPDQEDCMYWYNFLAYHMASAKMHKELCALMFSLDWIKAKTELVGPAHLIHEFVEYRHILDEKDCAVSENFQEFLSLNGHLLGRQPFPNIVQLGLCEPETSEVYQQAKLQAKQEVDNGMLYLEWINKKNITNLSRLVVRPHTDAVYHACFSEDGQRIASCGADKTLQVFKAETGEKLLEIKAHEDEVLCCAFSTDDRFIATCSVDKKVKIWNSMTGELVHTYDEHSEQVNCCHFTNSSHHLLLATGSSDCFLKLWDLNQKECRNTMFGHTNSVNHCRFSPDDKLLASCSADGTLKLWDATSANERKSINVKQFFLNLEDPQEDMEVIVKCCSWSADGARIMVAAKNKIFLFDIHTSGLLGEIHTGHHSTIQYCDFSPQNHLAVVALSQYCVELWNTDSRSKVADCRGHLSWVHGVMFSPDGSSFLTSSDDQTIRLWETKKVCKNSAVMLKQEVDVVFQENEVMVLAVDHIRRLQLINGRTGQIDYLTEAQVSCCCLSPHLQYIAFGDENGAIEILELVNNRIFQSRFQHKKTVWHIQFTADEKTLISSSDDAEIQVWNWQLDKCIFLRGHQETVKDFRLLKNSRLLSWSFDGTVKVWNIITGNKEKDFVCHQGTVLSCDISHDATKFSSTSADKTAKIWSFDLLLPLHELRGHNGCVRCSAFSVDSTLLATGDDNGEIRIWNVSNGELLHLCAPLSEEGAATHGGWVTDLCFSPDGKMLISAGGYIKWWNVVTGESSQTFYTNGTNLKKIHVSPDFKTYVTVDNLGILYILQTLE", "assay": "split reporter (BiFC, NanoBiT); cell-free split luciferase: extracts of N-luc Apaf-1 and C-luc Apaf-1 expressing cells mixed, cytochrome c (1.6 μM) and dATP (1.0 mM) added, room temperature; against the mixture without cytochrome c and dATP", "conditions": "remark: other sources report otherwise"}, "[2]": {"target": "T1, C-luc Apaf-1 (full length Apaf-1 fused …)", "assay": "split reporter (BiFC, NanoBiT); cell-based split luciferase: HEK293 co-transfected with N-luc Apaf-1 and C-luc Apaf-1 (N/P 12), apoptosis induced with 0.5 μM doxorubicin, lysates (CCLR) prepared 12, 24, 28 and 36 h after induction; luciferase activity against uninduced cells", "conditions": "remark: other sources report otherwise"}},
  "data": [
    {"binder": "N-luc Apaf-1 (full length Apaf-1 fused through its N-terminus to the N-terminal fragment, amino acids 1-416, of P. pyralis luciferase), O14727 1-1248 (natural protein) MDAKARNCLLQHREALEKDIKTSYIMDHMISDGFLTISEEEKVRNEPTQQQRAAMLIKMILKKDNDSYVSFYNALLHEGYKDLAALLHDGIPVVSSSSGKDSVSGITSYVRTVLCEGGVPQRPVVFVTRKKLVNAIQQKLSKLKGEPGWVTIHGMAGCGKSVLAAEAVRDHSLLEGCFPGGVHWVSVGKQDKSGLLMKLQNLCTRLDQDESFSQRLPLNIEEAKDRLRILMLRKHPRSLLILDDVWDSWVLKAFDSQCQILLTTRDKSVTDSVMGPKYVVPVESSLGKEKGLEILSLFVNMKKADLPEQAHSIIKECKGSPLVVSLIGALLRDFPNRWEYYLKQLQNKQFKRIRKSSSYDYEALDEAMSISVEMLREDIKDYYTDLSILQKDVKVPTKVLCILWDMETEEVEDILQEFVNKSLLFCDRNGKSFRYYLHDLQVDFLTEKNCSQLQDLHKKIITQFQRYHQPHTLSPDQEDCMYWYNFLAYHMASAKMHKELCALMFSLDWIKAKTELVGPAHLIHEFVEYRHILDEKDCAVSENFQEFLSLNGHLLGRQPFPNIVQLGLCEPETSEVYQQAKLQAKQEVDNGMLYLEWINKKNITNLSRLVVRPHTDAVYHACFSEDGQRIASCGADKTLQVFKAETGEKLLEIKAHEDEVLCCAFSTDDRFIATCSVDKKVKIWNSMTGELVHTYDEHSEQVNCCHFTNSSHHLLLATGSSDCFLKLWDLNQKECRNTMFGHTNSVNHCRFSPDDKLLASCSADGTLKLWDATSANERKSINVKQFFLNLEDPQEDMEVIVKCCSWSADGARIMVAAKNKIFLFDIHTSGLLGEIHTGHHSTIQYCDFSPQNHLAVVALSQYCVELWNTDSRSKVADCRGHLSWVHGVMFSPDGSSFLTSSDDQTIRLWETKKVCKNSAVMLKQEVDVVFQENEVMVLAVDHIRRLQLINGRTGQIDYLTEAQVSCCCLSPHLQYIAFGDENGAIEILELVNNRIFQSRFQHKKTVWHIQFTADEKTLISSSDDAEIQVWNWQLDKCIFLRGHQETVKDFRLLKNSRLLSWSFDGTVKVWNIITGNKEKDFVCHQGTVLSCDISHDATKFSSTSADKTAKIWSFDLLLPLHELRGHNGCVRCSAFSVDSTLLATGDDNGEIRIWNVSNGELLHLCAPLSEEGAATHGGWVTDLCFSPDGKMLISAGGYIKWWNVVTGESSQTFYTNGTNLKKIHVSPDFKTYVTVDNLGILYILQTLE", "values": [
      {"measurement": "fold increase in reconstituted luciferase activity with dATP/cytochrome c against the mixture without them", "setting": "[1]", "result": 5, "unit": "fold"},
      {"measurement": "fold change in luciferase activity against uninduced cells, 12 h after apoptosis induction", "setting": "[2]", "result": 10, "unit": "fold"},
      {"measurement": "fold change in luciferase activity against uninduced cells, 24 h after apoptosis induction", "setting": "[2]", "result": 130, "unit": "fold"},
      {"measurement": "fold change in luciferase activity against uninduced cells, 28 h after apoptosis induction", "setting": "[2]", "result": 280, "unit": "fold"},
      {"measurement": "fold change in luciferase activity against uninduced cells, 36 h after apoptosis induction", "setting": "[2]", "result": 40, "unit": "fold"}
    ]}
  ]
}
